Measurements published in patent US20220048967A1 (published 2022).
Numbered stars: 1 amine (or outer) side, 2 acyl side, 3 side chain; on linkers, the order of the positions; unused ones are H or OH. Square brackets hold non-standard residues; d marks the D form. Side chains are listed from the residue outwards. Ends that are not written are not given here. * marks the point of attachment. C20 diacid = O=C(O)CCCCCCCCCCCCCCCCCCC(=O)*; γGlu = O=C(O)[C@H](CCC(=O)[*:2])N[*:1]; AEEA = NCCOCCOCC(=O)O; Aib = CC(C)(N)C(=O)O

How the values were obtained:
[1] = biological target: human GLP-1 receptor (human, UniProt P43220 24-463); assay: cell-based or functional assay
[2] = biological target: T1, human GIP receptor (human, UniProt P48546 22-466); assay: cell-based or functional assay
T1 sequence (looked up): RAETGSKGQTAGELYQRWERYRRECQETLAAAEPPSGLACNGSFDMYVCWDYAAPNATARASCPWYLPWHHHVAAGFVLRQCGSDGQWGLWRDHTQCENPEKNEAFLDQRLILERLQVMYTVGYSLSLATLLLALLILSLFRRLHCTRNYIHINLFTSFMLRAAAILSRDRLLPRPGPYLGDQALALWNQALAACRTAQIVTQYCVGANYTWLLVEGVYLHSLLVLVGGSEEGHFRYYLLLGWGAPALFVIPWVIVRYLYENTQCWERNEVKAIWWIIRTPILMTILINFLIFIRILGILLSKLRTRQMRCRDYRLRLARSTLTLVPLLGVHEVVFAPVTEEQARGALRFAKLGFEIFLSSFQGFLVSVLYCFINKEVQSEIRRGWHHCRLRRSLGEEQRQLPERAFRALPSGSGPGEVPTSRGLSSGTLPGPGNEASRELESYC

## Y[Aib]EGTFTSDYSILLDKIAQ[Aib]AFIKYLIEGGPSSGAPPPS-NH2 (not fully specified (residue 24)) [Example 34]
[1]
  hGLP1R cAMP EC50 ratio: 0.0392
  hGLP1R cAMP Rel EC50: 1.56 nM
[2]
  hGIPR cAMP EC50 ratio: 0.393
  hGIPR cAMP Rel EC50: 0.36 nM

B1: Example 36 (peptide)
peptide: Y[Aib]EGTFTSDYSILLDKIAQ[Aib]AFIEYLK([AEEA-AEEA-γGlu-C20 diacid])EGGPSSGAPPPS-NH2
modifications: N-terminus assumed
SMILES: CC[C@H](C)[C@H](NC(=O)[C@H](CCCCN)NC(=O)[C@H](CC(=O)O)NC(=O)[C@H](CC(C)C)NC(=O)[C@H](CC(C)C)NC(=O)[C@@H](NC(=O)[C@H](CO)NC(=O)[C@H](Cc1ccc(O)cc1)NC(=O)[C@H](CC(=O)O)NC(=O)[C@H](CO)NC(=O)[C@@H](NC(=O)[C@H](Cc1ccccc1)NC(=O)[C@@H](NC(=O)CNC(=O)[C@H](CCC(=O)O)NC(=O)C(C)(C)NC(=O)[C@@H](N)Cc1ccc(O)cc1)[C@@H](C)O)[C@@H](C)O)[C@@H](C)CC)C(=O)N[C@@H](C)C(=O)N[C@@H](CCC(N)=O)C(=O)NC(C)(C)C(=O)N[C@@H](C)C(=O)N[C@@H](Cc1ccccc1)C(=O)N[C@H](C(=O)N[C@@H](CCC(=O)O)C(=O)N[C@@H](Cc1ccc(O)cc1)C(=O)N[C@@H](CC(C)C)C(=O)N[C@@H](CCCCNC(=O)COCCOCCNC(=O)COCCOCCNC(=O)CC[C@H](NC(=O)CCCCCCCCCCCCCCCCCCC(=O)O)C(=O)O)C(=O)N[C@@H](CCC(=O)O)C(=O)NCC(=O)NCC(=O)N1CCC[C@H]1C(=O)N[C@@H](CO)C(=O)N[C@@H](CO)C(=O)NCC(=O)N[C@@H](C)C(=O)N1CCC[C@H]1C(=O)N1CCC[C@H]1C(=O)N1CCC[C@H]1C(=O)N[C@@H](CO)C(N)=O)[C@@H](C)CC
[1]
  hGLP1R cAMP EC50 ratio: 0.0268
  hGLP1R cAMP Rel EC50: 2.29 nM
[2]
  hGIPR cAMP EC50 ratio: 0.458
  hGIPR cAMP Rel EC50: 0.309 nM

B2: Example 32 (peptide)
peptide: Y[Aib]EGTFTSDYSILLDKIAQ[Aib]K([AEEA-AEEA-γGlu-C20 diacid])FIEYLIEGGPSSGAPPPS-NH2
modifications: N-terminus assumed
SMILES: CC[C@H](C)[C@H](NC(=O)[C@H](CCCCN)NC(=O)[C@H](CC(=O)O)NC(=O)[C@H](CC(C)C)NC(=O)[C@H](CC(C)C)NC(=O)[C@@H](NC(=O)[C@H](CO)NC(=O)[C@H](Cc1ccc(O)cc1)NC(=O)[C@H](CC(=O)O)NC(=O)[C@H](CO)NC(=O)[C@@H](NC(=O)[C@H](Cc1ccccc1)NC(=O)[C@@H](NC(=O)CNC(=O)[C@H](CCC(=O)O)NC(=O)C(C)(C)NC(=O)[C@@H](N)Cc1ccc(O)cc1)[C@@H](C)O)[C@@H](C)O)[C@@H](C)CC)C(=O)N[C@@H](C)C(=O)N[C@@H](CCC(N)=O)C(=O)NC(C)(C)C(=O)N[C@@H](CCCCNC(=O)COCCOCCNC(=O)COCCOCCNC(=O)CC[C@H](NC(=O)CCCCCCCCCCCCCCCCCCC(=O)O)C(=O)O)C(=O)N[C@@H](Cc1ccccc1)C(=O)N[C@H](C(=O)N[C@@H](CCC(=O)O)C(=O)N[C@@H](Cc1ccc(O)cc1)C(=O)N[C@@H](CC(C)C)C(=O)N[C@H](C(=O)N[C@@H](CCC(=O)O)C(=O)NCC(=O)NCC(=O)N1CCC[C@H]1C(=O)N[C@@H](CO)C(=O)N[C@@H](CO)C(=O)NCC(=O)N[C@@H](C)C(=O)N1CCC[C@H]1C(=O)N1CCC[C@H]1C(=O)N1CCC[C@H]1C(=O)N[C@@H](CO)C(N)=O)[C@@H](C)CC)[C@@H](C)CC
[1]
  hGLP1R cAMP EC50 ratio: 0.136
  hGLP1R cAMP Rel EC50: 0.498 nM
[2]
  hGIPR cAMP EC50 ratio: 0.84
  hGIPR cAMP Rel EC50: 0.179 nM

## Y[Aib]EGTFTSDYSILLDKIAQ[Aib]AFK([AEEA-AEEA-γGlu-C20 diacid])EYLIEGGPSSGAPPPS-NH2 [Example 33]
[1]
  hGLP1R cAMP EC50 ratio: 0.000256
  hGLP1R cAMP Rel EC50: 251 nM
[2]
  hGIPR cAMP EC50 ratio: 0.00222
  hGIPR cAMP Rel EC50: 63.3 nM

B3: Example 37 (peptide)
peptide: Y[Aib]EGTFTSDYSILLDKIAQ[Aib]AFIEYLIK([AEEA-AEEA-γGlu-C20 diacid])GGPSSGAPPPS-NH2
modifications: N-terminus assumed
SMILES: CC[C@H](C)[C@H](NC(=O)[C@H](CCCCN)NC(=O)[C@H](CC(=O)O)NC(=O)[C@H](CC(C)C)NC(=O)[C@H](CC(C)C)NC(=O)[C@@H](NC(=O)[C@H](CO)NC(=O)[C@H](Cc1ccc(O)cc1)NC(=O)[C@H](CC(=O)O)NC(=O)[C@H](CO)NC(=O)[C@@H](NC(=O)[C@H](Cc1ccccc1)NC(=O)[C@@H](NC(=O)CNC(=O)[C@H](CCC(=O)O)NC(=O)C(C)(C)NC(=O)[C@@H](N)Cc1ccc(O)cc1)[C@@H](C)O)[C@@H](C)O)[C@@H](C)CC)C(=O)N[C@@H](C)C(=O)N[C@@H](CCC(N)=O)C(=O)NC(C)(C)C(=O)N[C@@H](C)C(=O)N[C@@H](Cc1ccccc1)C(=O)N[C@H](C(=O)N[C@@H](CCC(=O)O)C(=O)N[C@@H](Cc1ccc(O)cc1)C(=O)N[C@@H](CC(C)C)C(=O)N[C@H](C(=O)N[C@@H](CCCCNC(=O)COCCOCCNC(=O)COCCOCCNC(=O)CC[C@H](NC(=O)CCCCCCCCCCCCCCCCCCC(=O)O)C(=O)O)C(=O)NCC(=O)NCC(=O)N1CCC[C@H]1C(=O)N[C@@H](CO)C(=O)N[C@@H](CO)C(=O)NCC(=O)N[C@@H](C)C(=O)N1CCC[C@H]1C(=O)N1CCC[C@H]1C(=O)N1CCC[C@H]1C(=O)N[C@@H](CO)C(N)=O)[C@@H](C)CC)[C@@H](C)CC
[1]
  hGLP1R cAMP EC50 ratio: 0.0533
  hGLP1R cAMP Rel EC50: 1.15 nM
[2]
  hGIPR cAMP EC50 ratio: 0.532
  hGIPR cAMP Rel EC50: 0.269 nM

B4: Example 31 (peptide)
peptide: Y[Aib]EGTFTSDYSILLDKIAK([AEEA-AEEA-γGlu-C20 diacid])[Aib]AFIEYLIEGGPSSGAPPPS-NH2
modifications: N-terminus assumed
SMILES: CC[C@H](C)[C@H](NC(=O)[C@H](CCCCN)NC(=O)[C@H](CC(=O)O)NC(=O)[C@H](CC(C)C)NC(=O)[C@H](CC(C)C)NC(=O)[C@@H](NC(=O)[C@H](CO)NC(=O)[C@H](Cc1ccc(O)cc1)NC(=O)[C@H](CC(=O)O)NC(=O)[C@H](CO)NC(=O)[C@@H](NC(=O)[C@H](Cc1ccccc1)NC(=O)[C@@H](NC(=O)CNC(=O)[C@H](CCC(=O)O)NC(=O)C(C)(C)NC(=O)[C@@H](N)Cc1ccc(O)cc1)[C@@H](C)O)[C@@H](C)O)[C@@H](C)CC)C(=O)N[C@@H](C)C(=O)N[C@@H](CCCCNC(=O)COCCOCCNC(=O)COCCOCCNC(=O)CC[C@H](NC(=O)CCCCCCCCCCCCCCCCCCC(=O)O)C(=O)O)C(=O)NC(C)(C)C(=O)N[C@@H](C)C(=O)N[C@@H](Cc1ccccc1)C(=O)N[C@H](C(=O)N[C@@H](CCC(=O)O)C(=O)N[C@@H](Cc1ccc(O)cc1)C(=O)N[C@@H](CC(C)C)C(=O)N[C@H](C(=O)N[C@@H](CCC(=O)O)C(=O)NCC(=O)NCC(=O)N1CCC[C@H]1C(=O)N[C@@H](CO)C(=O)N[C@@H](CO)C(=O)NCC(=O)N[C@@H](C)C(=O)N1CCC[C@H]1C(=O)N1CCC[C@H]1C(=O)N1CCC[C@H]1C(=O)N[C@@H](CO)C(N)=O)[C@@H](C)CC)[C@@H](C)CC
[1]
  hGLP1R cAMP EC50 ratio: 0.0708
  hGLP1R cAMP Rel EC50: 0.891 nM
[2]
  hGIPR cAMP EC50 ratio: 0.456
  hGIPR cAMP Rel EC50: 0.388 nM

B5: Example 35 (peptide)
peptide: Y[Aib]EGTFTSDYSILLDKIAQ[Aib]AFIEYK([AEEA-AEEA-γGlu-C20 diacid])IEGGPSSGAPPPS-NH2
modifications: N-terminus assumed
SMILES: CC[C@H](C)[C@H](NC(=O)[C@H](CCCCN)NC(=O)[C@H](CC(=O)O)NC(=O)[C@H](CC(C)C)NC(=O)[C@H](CC(C)C)NC(=O)[C@@H](NC(=O)[C@H](CO)NC(=O)[C@H](Cc1ccc(O)cc1)NC(=O)[C@H](CC(=O)O)NC(=O)[C@H](CO)NC(=O)[C@@H](NC(=O)[C@H](Cc1ccccc1)NC(=O)[C@@H](NC(=O)CNC(=O)[C@H](CCC(=O)O)NC(=O)C(C)(C)NC(=O)[C@@H](N)Cc1ccc(O)cc1)[C@@H](C)O)[C@@H](C)O)[C@@H](C)CC)C(=O)N[C@@H](C)C(=O)N[C@@H](CCC(N)=O)C(=O)NC(C)(C)C(=O)N[C@@H](C)C(=O)N[C@@H](Cc1ccccc1)C(=O)N[C@H](C(=O)N[C@@H](CCC(=O)O)C(=O)N[C@@H](Cc1ccc(O)cc1)C(=O)N[C@@H](CCCCNC(=O)COCCOCCNC(=O)COCCOCCNC(=O)CC[C@H](NC(=O)CCCCCCCCCCCCCCCCCCC(=O)O)C(=O)O)C(=O)N[C@H](C(=O)N[C@@H](CCC(=O)O)C(=O)NCC(=O)NCC(=O)N1CCC[C@H]1C(=O)N[C@@H](CO)C(=O)N[C@@H](CO)C(=O)NCC(=O)N[C@@H](C)C(=O)N1CCC[C@H]1C(=O)N1CCC[C@H]1C(=O)N1CCC[C@H]1C(=O)N[C@@H](CO)C(N)=O)[C@@H](C)CC)[C@@H](C)CC
[1]
  hGLP1R cAMP EC50 ratio: 0.00728
  hGLP1R cAMP Rel EC50: 8.38 nM
[2]
  hGIPR cAMP EC50 ratio: 1.58
  hGIPR cAMP Rel EC50: 0.0905 nM
